Laboratory results published in patent US20170015742A1 (published 2017).

Assays:
[1] = target: T1, recombinant human VEGF165 (human, UniProt P15692 207-395); experiment: cell-based or functional assay
[2] = target: T2, recombinant human PDGF-BB (human, UniProt P01127 82-190); experiment: cell-based or functional assay
[3] = target: T1, recombinant human VEGF165; experiment: competition ELISA: DVD-Ig titrated against biotinylated hVEGF165 binding to coated hVEGFR2-Fc
Method: To identify molecules that could block the binding of hVEGF₁₆₅ to the hVEGF-R2 (KDR/Flk-1) receptor, a competition ELISA was performed. […] Plates were then washed four times with wash buffer (TBS, 0.05% Tween-20) and blocked with Superblock blocking buffer (Thermo Scientific, cat#37535). […] The pre-incubated sample/hVEGF₁₆₅ complex was added to the coated plate at 50 μL in duplicate and incubated for 30 minutes at 25° C. with shaking. Following incubation, plates were washed four times with wash buffer. Streptavidin-polyHRP-40 (Fitzgerald cal#65r-s104phrp) was diluted in assay diluent (10% Superblock containing 0.05% surfactamps) and added to plates (50 μL) for 45 minutes at 25° C. with shaking. Plates were washed four times with wash buffer and developed with the addition of Enhanced K-blue TMB substrate (Neogen cat#308177). The reaction was stopped with 2N sulfuric acid (VWR, cat# BDH3500-1) and the absorbance was read at 450 nm-570 nm. A decrease in observed optical density indicates the test molecule is blocking the hVEGF₁₆₅ binding to the hVEGF-R2-Fc. Data was analyzed using Softmax Pro 4.8 software and IC₅₀ values calculated using a sigmoidal dose response (variable slope) fit in GraphPad Prism 5.

[4] = target: T2, recombinant human PDGF-BB; experiment: competition ELISA: DVD-Ig titrated against biotinylated hPDGF-BB binding to coated hPDGF-Rbeta-Fc
Method: Plates were then washed four times with wash buffer (TBS, 0.05% Tween-20) and blocked with Superblock blocking buffer (Thermo Scientific, cat#37535). During the blocking step, supernatants, antibodies, benchmark compounds or DVD-Ig were diluted in assay diluent (10% Superblock containing 0.05% surfactamps) and an eight point titration of each sample molecule was performed. […] Following incubation, plates were washed four times with wash buffer. Detection reagent Streptavidin-polyHRP-40 (Fitzgerald, cat#65r-s104phrp) was diluted in assay diluent and added to plates (50 μL) for 45 minutes at 25° C. with shaking. Plates were washed four times with wash buffer and developed with the addition of Enhanced K-blue TMB substrate (Neogen, cat#308177). The reaction was stopped with 2N sulfuric acid (VWR, cat# BDH3500-1) and the absorbance was read at 450 nm-570 nm. […] Data was analyzed using Softmax Pro 4.8 software and IC₅₀ values calculated using a sigmoidal dose response (variable slope) fit in GraphPad Prism 5.

[5] = target: T3, human VEGF 165 (PR-1350437) (human, UniProt P15692 207-395); experiment: SPR (Biacore), mAb captured by anti-human Fc, antigen injected
T3 construct: Purified recombinant protein; also called hVEGF165
Method: (§1) Unreacted moieties on the biosensor surface were blocked with ethanolamine. For kinetic analysis, rate equations derived from the 1:1 Langmuir binding model were fitted simultaneously to multiple antigen injections (using global fit analysis) with the use of Scrubber 2 (BioLogic Software), Biacore Biaevaluation 4.0.1 software or Biacore T100 Evaluation software. Purified antibodies or DVD-Ig molecules were diluted in running buffer for capture across goat anti-human Fc reaction surfaces. Antibodies or DVD-Ig molecules to be captured as a ligand (1 μg/ml) were injected over reaction matrices at a flow rate of 10 μl/minute. During the assay, all measurements were referenced against the capture surface alone (i.e., with no captured antibody or DVD-Ig molecule). […] The equilibrium dissociation constant KD (M) of the reaction between antibodies and the target antigen was then calculated from the kinetic rate constants by the following formula: KD=Koff/Kₒₙ. Binding was recorded as a function of time and kinetic rate constants were calculated. In this assay, on-rates as fast as 10⁶M⁻¹s⁻¹ and off-rates as slow as 10⁻⁶ s⁻¹ could be measured.

[6] = target: T4, human VEGF 121 (PR-1515941) (human, UniProt P15692 207-395); experiment: as above
T4 construct: Recombinant isoform; also called hVEGF121
T4 sequence: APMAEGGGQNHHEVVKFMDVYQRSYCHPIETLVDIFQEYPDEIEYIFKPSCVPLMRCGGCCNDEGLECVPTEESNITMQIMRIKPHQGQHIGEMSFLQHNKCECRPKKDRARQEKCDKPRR
Method: as §1

[7] = target: T5, human VEGF 111 (PR-1520687) (human, UniProt P15692-10 27-137); experiment: as above
T5 construct: also called hVEGF111
T5 sequence (looked up): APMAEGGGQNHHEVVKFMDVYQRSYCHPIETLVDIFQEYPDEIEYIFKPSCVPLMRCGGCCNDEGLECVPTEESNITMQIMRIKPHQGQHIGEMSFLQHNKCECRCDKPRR
Method: as §1

[8] = target: T6, mouse PDGF-B (PR-1577160) (mouse, UniProt P31240 82-190); experiment: SPR (Biacore), binding protein captured by anti-human Fc, antigen injected
T6 construct: Recombinant; also called mouse PDGF-BB; mPDGF-BB
Method: as §1

[9] = target: T3, human VEGF 165 (PR-1350437); experiment: as above
Method: as §1

[10] = target: T7, human PDGF-B (PR-1373790) (human, UniProt P01127 82-190); experiment: as above
T7 construct: Soluble recombinant PDGF-BB homodimer; also called human PDGF-BB; hPDGF-BB
Method: as §1

[11] = target: T4, human VEGF 121 (PR-1515941); experiment: as above
Method: as §1

[12] = target: T5, human VEGF 111 (PR-1520687); experiment: as above
Method: as §1

cyno PDGF-B (PR-1575400) = target: T8, cyno PDGF-B (PR-1575400) (cynomolgus monkey, UniProt P01127 82-190 (human entry), limits assumed); experiment: as above
T8 construct: Recombinant; also called cynomolgus monkey PDGF-BB; cynoPDGF-BB
T8 chain: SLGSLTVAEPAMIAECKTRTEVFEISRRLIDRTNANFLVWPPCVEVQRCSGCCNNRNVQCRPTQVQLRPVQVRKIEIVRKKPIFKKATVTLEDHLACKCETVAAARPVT
Method: as §1

T6 sequence (P31240 82-190 limits assumed): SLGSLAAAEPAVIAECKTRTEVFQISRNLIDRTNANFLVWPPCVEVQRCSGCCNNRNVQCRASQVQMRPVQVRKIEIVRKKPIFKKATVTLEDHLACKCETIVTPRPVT

B1: 4G8.3-GS(9)-9E8.4 (g) DVD-Ig (PR-1572102) (bispecific antibody, human IgG1, kappa, L234A L235A)
heavy: EVQLVQSGSELKKPGASVKVSCKASGYTFTNYGMYWVRQAPGQGLEWMGWINTETGKPTYADDFKGRFVFSLDTSVSTAYLQISSLKAEDTAVYYCARTNYYYRSYIFYFDYWGQGTMVTVSSGGGGSGGGGSEVTLRESGPALVKPTQTLTLTCTFSGFSLSTYGMGVGWIRQPPGKALEWLANIWWDDDKYYNPSLKNRLTISKDTSKNQVVLTMTNMDPVDTATYYCARIESIGTTYSFDYWGQGTMVTVSSASTKGPSVFPLAPSSKSTSGGTAALGCLVKDYFPEPVTVSWNSGALTSGVHTFPAVLQSSGLYSLSSVVTVPSSSLGTQTYICNVNHKPSNTKVDKKVEPKSCDKTHTCPPCPAPEAAGGPSVFLFPPKPKDTLMISRTPEVTCVVVDVSHEDPEVKFNWYVDGVEVHNAKTKPREEQYNSTYRVVSVLTVLHQDWLNGKEYKCKVSNKALPAPIEKTISKAKGQPREPQVYTLPPSREEMTKNQVSLTCLVKGFYPSDIAVEWESNGQPENNYKTTPPVLDSDGSFFLYSKLTVDKSRWQQGNVFSCSVMHEALHNAYTQKSLSLSPGK
light: DTVLTQSPATLSLSPGERATLSCRASESVSTHMHWYQQKPGQAPRLLIYGASNLESGVPARFSGSGSGTDFTLTISSLEPEDFAVYFCQQSWNDPFTFGQGTKLEIKRGGSGGGGSGEFVLTQSPGTLSLSPGERATLSCERSSGDIGDSYVSWYQQKPGQAPRLVIYADDQRPSGIPDRFSGSGSGTDFTLTISRLEPEDFAVYYCQSYDINIDIVFGGGTKVEIKRTVAAPSVFIFPPSDEQLKSGTASVVCLLNNFYPREAKVQWKVDNALQSGNSQESVTEQDSKDSTYSLSSTLTLSKADYEKHKVYACEVTHQGLSSPVTKSFNRGEC
notes: DVD-Ig, outer hBDB-4G8.3 (VEGF), inner hBDI-9E8.4 (PDGF); IgG1 L234A, L235A, H435A / kappa; also called 4G8.3-GS-9E8.4 (g); DVD-Ig-1
Q: How did the “HMVEC-d hVEGF165 Potency IC50” value [1] turn out when B1 was run?
A: 0.417 nM

Q: What about the “NIH-3T3 hPDGF-BB Potency IC50” value [2] of the same binder?
A: 0.528 nM

Q: And the IC50 [3]?
A: 0.157 nM

Q: And the IC50 [4]?
A: > 5 nM

B2: AB642 (9E10.1), PR-1594047 (antibody, V domains shown)
VH: EIQLVQSGSELKKPGASVKVSCKASGYTFTNYGMYWVKQAPGQGLEYMGWIDTETGRPTYADDFKGRFVFSLDTSVSTAYLQISSLKAEDTAVYFCARWSGDTTGIRGPWFAYWGQGTLVTVSS
VL: DIRMTQSPSSLSASVGDRVTIECLASEDIYSDLAWYQQKPGKSPKLLIYNANGLQNGVPSRFSGSGSGTDYSLTISSLQPEDVATYFCQQYNYFPGTFGQGTKLEIK
notes: Parental anti-VEGF mAb of PR-1610561; Humanized IgG; also called hBEW-9E10.1
Q: How did the Kd [5] turn out when B2 was run?
A: 1.8 pM

Q: And the koff [5]?
A: 2.8e-05 s⁻¹

Q: And the kon [5]?
A: 1.6e+07 M⁻¹ s⁻¹

Q: What about the Kd [6] of the same binder?
A: 0.021 nM

Q: What about the koff [6] of the same binder?
A: 6.8e-05 s⁻¹

Q: And the kon [6]?
A: 3.2e+06 M⁻¹ s⁻¹

Q: What about the Kd [7] of the same binder?
A: 0.058 nM

Q: What about the koff [7] of the same binder?
A: 0.0001 s⁻¹

Q: And the kon [7]?
A: 1.8e+06 M⁻¹ s⁻¹

B3: 9E10.1-GS-33675 anti-VEGF/anti-PDGF DVD-Ig (PR-1610561) (bispecific antibody, human IgG1, kappa, L234A L235A)
heavy: EIQLVQSGSELKKPGASVKVSCKASGYTFTNYGMYWVKQAPGQGLEYMGWIDTETGRPTYADDFKGRFVFSLDTSVSTAYLQISSLKAEDTAVYFCARWSGDTTGIRGPWFAYWGQGTLVTVSSGGGGSGGGGSEVTLRESGPALVKPTQTLTLTCTFSGFSLSTYGMGVGWIRQPPGKALEWLANIWWDDDKYYNPSLKNRLTISKDTSKNQVVLTMTNMDPVDTATYYCARIESSGPKYSFDYWGQGTMVTVSSASTKGPSVFPLAPSSKSTSGGTAALGCLVKDYFPEPVTVSWNSGALTSGVHTFPAVLQSSGLYSLSSVVTVPSSSLGTQTYICNVNHKPSNTKVDKKVEPKSCDKTHTCPPCPAPEAAGGPSVFLFPPKPKDTLMISRTPEVTCVVVDVSHEDPEVKFNWYVDGVEVHNAKTKPREEQYNSTYRVVSVLTVLHQDWLNGKEYKCKVSNKALPAPIEKTISKAKGQPREPQVYTLPPSREEMTKNQVSLTCLVKGFYPSDIAVEWESNGQPENNYKTTPPVLDSDGSFFLYSKLTVDKSRWQQGNVFSCSVMHEALHNAYTQKSLSLSPGK
light: DIRMTQSPSSLSASVGDRVTIECLASEDIYSDLAWYQQKPGKSPKLLIYNANGLQNGVPSRFSGSGSGTDYSLTISSLQPEDVATYFCQQYNYFPGTFGQGTKLEIKGGSGGGGSGGEIVLTQSPGTLSLSPGERATLSCRASSGSIWYSFVSWYQQKPGQAPRLLIYADDQRASGIPDRFSGSGSGTDFTLTISRLEPEDFAVYYCQSYGINIDVVFGGGTKVEIKRTVAAPSVFIFPPSDEQLKSGTASVVCLLNNFYPREAKVQWKVDNALQSGNSQESVTEQDSKDSTYSLSSTLTLSKADYEKHKVYACEVTHQGLSSPVTKSFNRGEC
notes: DVD-Ig: outer domain hBEW-9E10.1 (VEGF), inner domain CL-33675 (PDGF), linkers GS-H10 / GS-L10(dR), human IgG1 L234A, L235A, H435A, kappa; Lot 2213329; also called hu VEGF 9E10.1-GS-hu PDGF 33675 [hu IgG1/k]; LALA H435A
Q: B3 was tested. Which Kd [8] did it give?
A: ≤ 5.2 pM

Q: And the koff [8]?
A: 5.2e-05 s⁻¹

Q: What about the kon [8] of the same binder?
A: ≥ 1e+07 M⁻¹ s⁻¹

Q: And the Kd [9]?
A: 0.065 nM

Q: And the koff [9]?
A: 3.4e-05 s⁻¹

Q: And the kon [9]?
A: 520000 M⁻¹ s⁻¹

Q: And the Kd [10]?
A: ≤ 5.2 pM

Q: And the koff [10]?
A: 5.2e-05 s⁻¹

Q: And the kon [10]?
A: ≥ 1e+07 M⁻¹ s⁻¹

Q: What about the Kd [11] of the same binder?
A: 0.23 nM

Q: And the koff [11]?
A: 4.1e-05 s⁻¹

Q: What about the kon [11] of the same binder?
A: 180000 M⁻¹ s⁻¹

Q: What about the Kd [12] of the same binder?
A: 0.29 nM

Q: And the koff [12]?
A: 4.3e-05 s⁻¹

Q: What about the kon [12] of the same binder?
A: 150000 M⁻¹ s⁻¹

Q: And the Kd (cyno PDGF-B (PR-1575400))?
A: ≤ 0.81 pM

Q: What about the koff (cyno PDGF-B (PR-1575400)) of the same binder?
A: 8.1e-06 s⁻¹

Q: And the kon (cyno PDGF-B (PR-1575400))?
A: ≥ 1e+07 M⁻¹ s⁻¹
